This data set concerns the molecule itself. The experiment in a line: cryo-EM structure; TdfH-CP complex formed on a StrepTactinXT column (CP preincubated with CaCl2 and ZnCl2), eluted with desthiobiotin, in PBS pH 7.4, 0.02% LMNG; Titan Krios 300 kV; 6.1 Å; CP seen as a dimer of S100A8-S100A9 heterodimers (heterotetramer).

B1: human calprotectin (CP), heterodimer of S100A8 and S100A9 (complex)
chain 1: MLTELEKALNSIIDVYHKYSLIKGNFHAVYRDDLKKLLETECPQYIRKKGADVWFKELDINTDGAVNFQEFLILVIKMGVAAHKKSHEESHKE
chain 2: KMSQLERNIETIINTFHQYSVKLGHPDTLNQGEFKELVRKDLQNFLKKENKNEKVIEHIMEDLDTNADKQLSFEEFIMLMARLTWASHEKMHEGDEGPGHHHKPGLGEGTP
notes: S100A8, human, subunit of calprotectin; S100A9, human, subunit of calprotectin; with calcium and zinc it stands as a heterotetramer (two heterodimers) in the cryo-EM complex; also called S100A8-S100A9 heterodimer; copies: 1 + 1
Usually stoichiometry N stands for a count of units in the complex or per binding partner. As for B1, the “stoichiometry N” value was 2.

For the origin of these results see publication PMC8803948, “TdfH selectively binds metal-loaded tetrameric calprotectin for zinc import” (Communications Biology, 2022).
